Our source for the Kd values is paper PMC7437355 (2020).

The target of assay [1] is T1, SPRED1(EVH1), SPRED1(13–125), wild type (ITC) (human, UniProt Q7Z699 13-125).
T1 chain: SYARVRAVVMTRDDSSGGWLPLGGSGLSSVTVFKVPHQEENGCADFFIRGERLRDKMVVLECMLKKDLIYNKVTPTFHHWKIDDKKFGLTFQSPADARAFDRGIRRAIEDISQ
Nature of the assay: ITC.

Assay [2] addresses KRAS4b(1–169), wild type, GMPPNP-bound (UniProt P01116-2 1-169). Nature of the assay: ITC; GMPPNP.

Usually Kd stands for the concentration at which binding is half-saturated. Low values mean higher affinity, high ones lower affinity.

B1: NF1 isoform I (GRD containing additional 23 residues) (domain or fragment)
chain: DRFERLVELVTMMGDQGELPIAMALANVVPCSQWDELARVLVTLFDSRHLLYQLLWNMFSKEVELADSMQTLFRGNSLASKIMTFCFKVYGATYLQKLLDPLLRIVITSSDWQHVSFEVDPTRLEPSESLEENQRNLLQMTEKFFHAIISSSSEFPPQLRSVCHCLYQATCHSLLNKATVKEKKENKKSVVSQRFPQNSIGAVGSAMFLRFINPAIVSPYEAGILDKKPPPRIERGLKLMSKILQSIANHVLFTKEEHMRPFNDFVKSNFDAARRFFLDIASDCPTSDAVNHSLSFISDGNVLALHRLLWNNQEKIGQYLSSNRDHKAVGRRPFDKMATLLAYLGPPEH
With B1, the Kd was determined as 260 nM in assay [1] and 4000 nM in assay [2].
